Test: soluble on expression in E. coli; label from the status in PepcDB or PDB records

Sequence	soluble on expression in E. coli
MGSDKIHHHHHHMLCENCHFNEAEVKLTVKGIDSTHEKWVCSVCAQGENPWLHSNDDNTYHTHQDDIEEAFVVKQILQHLAAKHGINFHEMAFKEEKKCPTCQMTLKDIAHVGKLGCADCYATFKEDIIDIVQRVQGGQFEHVGKTPQSSYKKLAIKKQIEEKSKYLNKLIDGQEFEEAAIVRDEIKALKSESEVSHDE	not soluble
MGSDKIHHHHHHMEWILFDKDGTLIEFDSSWEKIGVRLVDQLLETFPVHDKEAAHRQLGIIDKKIKPDSVMGSGSLGEIIESFNGVTGKETSDWTRDTSQELIDSRVPENNWIDGVQETIQALRNEGYHIGIVTSDTKKGVDQFLEETQTRNLFDLVISTETHAEEKPHPKVLDPLFNAFDVEPGQVAIVGDTANDMKTAINANLGLGIGVLTGVAKKEELYDADVIINSAKDVKQVIEQYGK	not soluble
MSLAQQKPVEKVDSDGVYLMPDQMPEFPGGMQAMMKFLTTNIKYPVEAQKKGVSGRVIVQFVIMEDGTLDQAKVVRGVDPLLDEEALRVVKLMPKWKPGMDRGEAVKVRFTAPIMFNLSRSEAQRPTFPELVVPIGQEVENRSLQGVWQSCVAQPGEHGYKILLLPVLKIVSPDQTFMNIMTAGMNGRSNAIIYCQGEYSLPSDGTYVEMVEKSVDPVFIQGVKNEISVERLHDNLIKLSFTVPGQGRKVTEYWFRAPSPDVKIMAEGHHHHHH	soluble
SLIENVDAQADSSWPHRGQIEVRNLTVKYTEAGHAVLKNLSFSAEGRQRVGILGRTGSGKSSLFNALLKLVYTDGEISIDGVNWNKMPLEKWRKAFGVVPQKVFIFTGPLRMNLDPYGCHSDEELWRVAEEVGLKTVIEQFPDKLDFQLEYGGYVLSNGHKQLICLARSILSGARILLLDEPSAHLDPVTIKVLKKTLRQSFSTCTILLSEHKVEPLLECDSFLMMDKGQVKTYDSIQKLLNETSDLKQAISPAE	not soluble
MGSDKIHHHHHHMSEQVRSLSEFTAEVEAMTAAMMTEEPQEIASMRCGEMENTAGSYGQYFGTWDIAHGMLRDYSMYTLYPITALAEDAEMDLTSLSKTVDALDPAYSNYLRYSGFPRMGKLAVELRGLIRASTSRSDIVAALRAFTAYTNRLQAWSFHYFPWGLGKHFRYDEARLQDAPLPVADLGATRACITCGQRIRISWEPLGITVNATLASEENPELCADVVAALPFTVIQDHAVVTGESMYAWTPVLSTAPIHLRERICDAPVGRLRYSQSTGQKFIVQYGPTTEDLSQPVLGEIDAADAGKLEQVGRAVWDSTFDNKQLIWMTVELA	not soluble
GAMVMRLGDAAELCYNLTSSYLQIAAESDSIIAQTQRAINTTKSILINETFPKWSPLNGEISFSYNGGKDCQVLLLLYLSCLWEYYIVKLSQSQFDGKFHRFPLTKLPTVFIDHDDTFKTLENFIEETSLRYSLSLYESDRDKCETMAEAFETFLQVFPETKAIVIGIRHTDPFGEHLKPIQKTDANWPDFYRLQPLLHWNLANIWSFLLYSNEPICELYRYGFTSLGNVEETLPNPHLRKDKNSTPLKLNFEWEIENRYKHNEVTKAEPIPIADEDLVKIENLHEDYYPGWYLVDDKLERAGRIKKK	soluble
GSKNCPDPELCRQSFRRFCYQEVSGPQEALSQLRQLCRQWLQPELHTKEQILELLVMEQFLTILPEEIQARVRHRCLMSSKEIVTLVEDFHRASKKPK	soluble
GMEGSLSRGVEIMKLRELVARSRSIRRFDEHVAVNDATLRDLVELVCYTPSAANRQLLRFLPVTGADMSDKVFPCLKWAGYLEDWPGPEPGERPAAALVMLCRNEDLPGAACDSGIAAQTIMLGAAEKELGGCIVAAIDRERLMASLGIPDAWTVLLVIALGKPAETVVIDQIKPGDDIRYWRDKHGIHHVPKRQVDELLVTAEQLRERG	soluble
MDLEISEKIKAYRQVMSAKSPSDAALTWNLFDLPNNMELARFFSTLSKEEMAKFEQCVFVDGQDPKTYIKMHKMVESTATIALSEEIENKRTILVAEPNRGGVSGHEGEMASTSSGFRDGYHPCMDHTSYAEGLFTESEKAWELERLLKLQKEIAEAKSKIVKQKKPSIKSA	not soluble
